Laboratory results: patent publication US20090166224A1 (published 2009)

Tests used:
Test in all cases: human serum on Con A/WGA/Jacalin column, lectin-specific displacer fraction, LC-MS/MS; grade = SEQUEST rank group (+ = ranks 1-5, ++++ = 16-20)
[1] = target: T1, INTER-ALPHA-TRYPSIN INHIBITOR HEAVY CHAIN H1 (human, UniProt P19827 35-672)
T1 construct: from human serum; also called ITH1
T1 sequence (looked up): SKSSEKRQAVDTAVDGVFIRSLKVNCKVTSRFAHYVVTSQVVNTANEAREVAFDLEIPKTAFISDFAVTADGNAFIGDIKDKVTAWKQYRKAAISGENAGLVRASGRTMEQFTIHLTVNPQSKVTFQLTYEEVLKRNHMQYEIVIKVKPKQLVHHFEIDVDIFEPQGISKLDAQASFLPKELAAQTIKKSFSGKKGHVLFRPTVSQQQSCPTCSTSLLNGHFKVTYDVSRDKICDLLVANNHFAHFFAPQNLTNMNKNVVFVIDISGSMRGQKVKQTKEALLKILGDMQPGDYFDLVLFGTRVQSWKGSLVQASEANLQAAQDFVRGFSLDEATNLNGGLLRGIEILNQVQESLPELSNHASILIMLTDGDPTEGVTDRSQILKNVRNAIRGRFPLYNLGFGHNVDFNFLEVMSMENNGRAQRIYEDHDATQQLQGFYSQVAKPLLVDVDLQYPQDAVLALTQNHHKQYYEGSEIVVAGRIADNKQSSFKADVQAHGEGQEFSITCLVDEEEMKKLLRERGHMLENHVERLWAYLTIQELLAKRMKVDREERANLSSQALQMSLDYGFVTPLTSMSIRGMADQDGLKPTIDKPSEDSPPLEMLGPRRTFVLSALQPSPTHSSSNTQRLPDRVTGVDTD

APOLIPOPROTEIN E = target: T2, APOLIPOPROTEIN E (human, UniProt P02649 19-317)
T2 construct: from human serum; also called APE
T2 sequence (P02649 19-317 limits assumed): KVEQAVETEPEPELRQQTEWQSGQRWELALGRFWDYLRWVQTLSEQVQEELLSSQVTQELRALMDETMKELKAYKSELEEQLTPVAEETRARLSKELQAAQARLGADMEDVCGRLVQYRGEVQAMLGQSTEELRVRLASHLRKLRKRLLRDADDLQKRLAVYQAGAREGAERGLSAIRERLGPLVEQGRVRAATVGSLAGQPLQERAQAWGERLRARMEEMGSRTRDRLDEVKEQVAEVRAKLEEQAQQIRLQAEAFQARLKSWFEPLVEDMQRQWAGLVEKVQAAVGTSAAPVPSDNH

Alpha-1-antitrypsin = target: T3, Alpha-1-antitrypsin (human, UniProt P01009 25-418)
T3 construct: also called A1AT; α1-antitrypsin
T3 sequence (P01009 25-418 limits assumed): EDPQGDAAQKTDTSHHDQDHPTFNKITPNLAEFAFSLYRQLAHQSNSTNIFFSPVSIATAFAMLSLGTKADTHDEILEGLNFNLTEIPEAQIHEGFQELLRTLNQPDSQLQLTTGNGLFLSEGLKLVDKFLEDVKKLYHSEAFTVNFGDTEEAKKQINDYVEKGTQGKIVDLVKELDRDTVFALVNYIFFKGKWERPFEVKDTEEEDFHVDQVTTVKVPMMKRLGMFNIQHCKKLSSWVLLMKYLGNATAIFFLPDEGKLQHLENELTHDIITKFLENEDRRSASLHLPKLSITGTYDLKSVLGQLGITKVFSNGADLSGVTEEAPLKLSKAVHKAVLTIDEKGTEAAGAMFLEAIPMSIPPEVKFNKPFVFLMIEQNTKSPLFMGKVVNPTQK

APOLIPOPROTEIN C-III = target: T4, APOLIPOPROTEIN C-III (human, UniProt P02656 21-99)
T4 construct: from human serum; also called APC3
T4 sequence (P02656 21-99 limits assumed): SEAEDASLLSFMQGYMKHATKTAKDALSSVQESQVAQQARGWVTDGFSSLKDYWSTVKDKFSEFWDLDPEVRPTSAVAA

[2] = target: T5, IG GAMMA-3 CHAIN C REGION (human, UniProt P01860-1 1-377)
T5 construct: domain: C region; Polyclonal serum IgG3, identified through its constant region; variable regions and light chains not defined; also called GC3
T5 sequence (P01860 other isoform, or with tags, fused parts or gaps limits assumed): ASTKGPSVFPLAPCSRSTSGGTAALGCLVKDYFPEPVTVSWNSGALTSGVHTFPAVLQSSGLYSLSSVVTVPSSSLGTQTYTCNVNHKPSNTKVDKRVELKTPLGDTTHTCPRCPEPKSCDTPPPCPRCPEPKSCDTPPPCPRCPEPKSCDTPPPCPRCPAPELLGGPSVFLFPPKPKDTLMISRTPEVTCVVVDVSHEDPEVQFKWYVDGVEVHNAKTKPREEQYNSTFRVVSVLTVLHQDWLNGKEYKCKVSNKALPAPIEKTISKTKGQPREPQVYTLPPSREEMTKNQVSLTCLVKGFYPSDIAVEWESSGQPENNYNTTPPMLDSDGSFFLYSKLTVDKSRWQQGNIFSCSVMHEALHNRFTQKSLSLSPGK

[3] = target: T6, INTER-ALPHA-TRYPSIN INHIBITOR HEAVY CHAIN H2 (human, UniProt P19823 55-702)
T6 construct: from human serum; also called ITH2
T6 sequence (looked up): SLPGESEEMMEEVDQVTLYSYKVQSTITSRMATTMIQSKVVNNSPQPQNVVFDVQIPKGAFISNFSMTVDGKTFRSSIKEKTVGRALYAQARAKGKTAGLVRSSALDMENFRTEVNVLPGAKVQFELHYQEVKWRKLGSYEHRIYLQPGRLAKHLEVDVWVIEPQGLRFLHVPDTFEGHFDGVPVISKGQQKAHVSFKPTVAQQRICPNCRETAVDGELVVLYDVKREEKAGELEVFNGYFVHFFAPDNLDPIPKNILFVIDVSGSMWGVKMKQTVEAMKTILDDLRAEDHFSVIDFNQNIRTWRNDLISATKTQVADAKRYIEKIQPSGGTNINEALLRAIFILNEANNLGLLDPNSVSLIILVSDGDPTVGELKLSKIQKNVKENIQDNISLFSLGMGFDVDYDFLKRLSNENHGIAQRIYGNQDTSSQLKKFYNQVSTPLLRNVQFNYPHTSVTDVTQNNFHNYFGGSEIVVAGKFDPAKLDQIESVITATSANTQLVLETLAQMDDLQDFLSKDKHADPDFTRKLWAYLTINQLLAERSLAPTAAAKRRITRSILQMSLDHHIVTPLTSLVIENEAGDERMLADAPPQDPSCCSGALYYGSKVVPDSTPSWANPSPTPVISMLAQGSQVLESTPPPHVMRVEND

[4] = target: T7, HAPTOGLOBIN-RELATED PROTEIN (human, UniProt P00739 1-348, limits assumed)
T7 construct: from human serum; also called HPTR
T7 sequence (looked up): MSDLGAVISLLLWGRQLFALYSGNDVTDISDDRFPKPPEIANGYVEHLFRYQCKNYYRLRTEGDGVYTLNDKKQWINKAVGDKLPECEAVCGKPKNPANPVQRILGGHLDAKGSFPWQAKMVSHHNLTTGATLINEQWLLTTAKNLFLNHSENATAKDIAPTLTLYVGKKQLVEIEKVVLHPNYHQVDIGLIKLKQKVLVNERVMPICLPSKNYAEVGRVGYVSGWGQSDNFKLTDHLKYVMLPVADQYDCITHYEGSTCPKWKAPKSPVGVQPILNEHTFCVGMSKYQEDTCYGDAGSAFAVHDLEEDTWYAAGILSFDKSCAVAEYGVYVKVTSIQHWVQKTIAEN

B1: Jacalin lectin, agarose-bound (other)
chain 1: GKAFDDGAFTGIREINLSYNKETAIGDFQVVYDLNGSPYVGQNHKSFITGFTPVKISLDFPSEYIMEVSGYTGNVSGYVVVRSLTFKTNKKTYGPYGVTSGTPFNLPIENGLIVGFKGSIGYWLDYFSMYLSL
chain 2: NEQSGKSQTVIVGSWGAKVS
modifications: immobilized on agarose
notes: Lectin; released with galactose; Coated on the plate in the lectin ELISA
SEQUEST ranking (relative abundance in the Jacalin displacement fraction) [1]: 6 to 10 rank
SEQUEST ranking (relative abundance in the Jacalin displacement fraction) (APOLIPOPROTEIN E): 11 to 15 rank
SEQUEST ranking (relative abundance in the Jacalin displacement fraction) (Alpha-1-antitrypsin): 1 to 5 rank
SEQUEST ranking (relative abundance in the Jacalin displacement fraction) (APOLIPOPROTEIN C-III): 6 to 10 rank
SEQUEST ranking (relative abundance in the Jacalin displacement fraction) [2]: 16 to 20 rank
SEQUEST ranking (relative abundance in the Jacalin displacement fraction) [3]: 16 to 20 rank
SEQUEST ranking (relative abundance in the Jacalin displacement fraction) [4]: 6 to 10 rank
